Measured values reported in patent publication US20140031247.

Key:
[1] = test system: biotinylated recombinant Notch1 substrate N1-Sb1
[2] = test system: N1-Sb1 substrate with P2 substitution C1752A
[3] = test system: N1-Sb1 substrate with P2 substitution C1752V
[4] = test system: N1-Sb1 substrate with P2 substitution C1752M

Chain of biotinylated recombinant Notch1 substrate N1-Sb1 (chain, as listed by the source): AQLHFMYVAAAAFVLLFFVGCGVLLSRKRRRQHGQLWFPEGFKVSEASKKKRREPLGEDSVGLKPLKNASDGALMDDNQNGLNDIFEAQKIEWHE

Substance | apparent Km [1] | Km [1] | rate of γ-secretase cleavage compared with WT substrate [2] | rate of γ-secretase cleavage compared with WT substrate [3] | rate of γ-secretase cleavage compared with WT substrate [4]
γ-secretase of HeLa cell membrane | the apparent Km of N1-Sb1 cleavage by γ-secretase is 0.15±0.03 µM | – | – | – | –
γ-secretase with E280A PS1 (membrane of N2a cells stably expressing E280A PS1) | – | the Km values for N1-Sb1 cleavage by PS1 wild-type, M146L, and E280A FAD mutants are 70, 49, and 50 nM, respectively | significantly reduced reactivity for all three forms of γ-secretase (20-30% remaining) | had no effect on WT (left panel) and E280A PS1 (right panel) | E280A (185.5±7.4%) PS1
γ-secretase with M146L PS1 (membrane of N2a cells stably expressing M146L PS1) | – | the Km values for N1-Sb1 cleavage by PS1 wild-type, M146L, and E280A FAD mutants are 70, 49, and 50 nM, respectively | significantly reduced reactivity for all three forms of γ-secretase (20-30% remaining) | considerably increased reactivity for M146L PS1 γ-secretase (141.3±17.9%0 | significantly enhanced activity for M146L (166.4±6.1%)
γ-secretase with M146V PS1 (membrane of M146V PS1 knock-in mouse brain) | – | The Km values of WT and M146V PS1 are 60 and 48 nM, respectively | – | – | enhanced activity for M146V knock-in PS1 (127.4±3.7%)
γ-secretase with wild type PS1 (membrane of knock-in wild type PS1 mouse brain) | – | The Km values of WT and M146V PS1 are 60 and 48 nM, respectively | – | – | C1752M substrate also had no effect on WT PS1 (left panel)
γ-secretase with wild-type PS1 (membrane of N2a cells stably expressing WT PS1) | – | the Km values for N1-Sb1 cleavage by PS1 wild-type, M146L, and E280A FAD mutants are 70, 49, and 50 nM, respectively | significantly reduced reactivity for all three forms of γ-secretase (20-30% remaining) | had no effect on WT (left panel) and E280A PS1 (right panel) | C1752M substrate had no effect on WT (left panel)
